Earlier results in article PMC2930029.
Like-named read-outs stand apart in the source and are kept apart here.

Key:
[1] = target: C3b C3b (Homo sapiens) (UniProt P01024); experiment: SPR
[2] = target: C3b C3b (Homo sapiens) (UniProt P01024)

C3b C3b (Homo sapiens), sequence (P01024 566-670): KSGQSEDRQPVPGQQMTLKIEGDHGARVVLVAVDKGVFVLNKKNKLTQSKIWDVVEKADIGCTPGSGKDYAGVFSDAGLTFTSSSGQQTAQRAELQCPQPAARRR
Efb, sequence (P68799 30-165): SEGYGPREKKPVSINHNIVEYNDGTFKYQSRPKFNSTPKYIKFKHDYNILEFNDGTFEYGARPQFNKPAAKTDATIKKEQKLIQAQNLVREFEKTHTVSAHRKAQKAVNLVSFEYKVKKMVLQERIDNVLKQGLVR
SCIN, sequence (A7X482 32-116): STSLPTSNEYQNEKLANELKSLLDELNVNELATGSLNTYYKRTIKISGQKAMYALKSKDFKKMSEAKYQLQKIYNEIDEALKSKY
Factor H fH(1-4), sequence (P08603 19-264): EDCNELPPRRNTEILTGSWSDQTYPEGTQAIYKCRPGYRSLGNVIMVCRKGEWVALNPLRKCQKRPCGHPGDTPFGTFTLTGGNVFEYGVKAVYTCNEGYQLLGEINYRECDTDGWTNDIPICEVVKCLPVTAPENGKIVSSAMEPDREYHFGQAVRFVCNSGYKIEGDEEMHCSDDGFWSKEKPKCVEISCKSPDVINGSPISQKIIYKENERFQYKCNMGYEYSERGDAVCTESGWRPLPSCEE

Substance | Kd [1] [nM] | Kd [2] [nM]
Efb (from UniProt P68799) | 10 | 
SCIN (from UniProt A7X482) | 180 | 
Factor H fH(1-4) (from UniProt P08603) |  | 11000
